Experimental data from publication PMC4277816 (Chemical communications (Cambridge, England), 2014).
Square brackets hold non-standard residues; d marks the D form. Peptide text beside a SMILES is read from it. * marks the point of attachment. X2 = O=C(O)C(CCCCN*)N1CCCN2CCN(CCCN(CP(=O)(O)O)CC2)CC1; PEG4 = NCCOCCOCCOCCOCCC(=O)O; X1 = O=C(/C=C/c1ccccc1)*

Experiment: serum stability of 64Cu-labelled cFlFlF peptide–chelate conjugates
Format: in vitro ADME
Settings: compared with the 64Cu–CB-TE1A1P peptide, result in words (Fig. S2b, ESI)

With `CC(C)C[C@@H](NC(=O)[C@H](Cc1ccccc1)NC(=O)[C@@H](CC(C)C)NC(=O)[C@H](Cc1ccccc1)NC(=O)/C=C/c1ccccc1)C(=O)N[C@@H](Cc1ccccc1)C(=O)NCCOCCOCCOCCOCCC(=O)NCCCCC(C(=O)O)N1CCCN2CCN(CCCN(CP(=O)(O)O)CC2)CC1` (stereo partly drawn) [64Cu–CB-TE1K1P peptide, metal not drawn] (X1-F[dL]F[dL]F[PEG4]-X2; N-terminus assumed) the serum stability was “better serum stability”.
